These results are taken from US20160068605A1.

One may read the EC50 (read off the curve) as the concentration that produces a half-maximal response. Lower therefore signals an effect from little substance. A word on the Kd: it is a measure of binding affinity in units of concentration. High values mean lower affinity, low ones higher affinity.

Like-named read-outs stand apart in the source and are kept apart here.

The target in assay [1] is IL3RA-PK (CD123 tagged with ProLink) in HEK293 IL3RA-PK/CSF2RB-EA cells (UniProt P26951).
Assay [2] addresses endogenous CD123 on human leukaemia cells (OCI-AML5, TF-1) (human) (UniProt P26951). Description: MSD cell binding assay on OCI-AML5 cells (endogenous CD123).
Assay [3] deals with cyno CD123 ECD displayed on pDisplay-transfected cells (cynomolgus monkey). Description: MSD-CAT, cynoCD123 cells, assay-2.
Assay [4] deals with IL3RA-PK (CD123 tagged with ProLink) in HEK293 IL3RA-PK/CSF2RB-EA cells (UniProt P26951). The source holds these as a separate data set.
The target in assay [5] is human CD123 SP1 ECD displayed on pDisplay-transfected cells (human) (UniProt P26951). The assay can be described thus: MSD-CAT, hCD123 cells, assay-2.
Sequence of human CD123 SP1 ECD displayed on pDisplay-transfected cells (human) (P26951 20-305): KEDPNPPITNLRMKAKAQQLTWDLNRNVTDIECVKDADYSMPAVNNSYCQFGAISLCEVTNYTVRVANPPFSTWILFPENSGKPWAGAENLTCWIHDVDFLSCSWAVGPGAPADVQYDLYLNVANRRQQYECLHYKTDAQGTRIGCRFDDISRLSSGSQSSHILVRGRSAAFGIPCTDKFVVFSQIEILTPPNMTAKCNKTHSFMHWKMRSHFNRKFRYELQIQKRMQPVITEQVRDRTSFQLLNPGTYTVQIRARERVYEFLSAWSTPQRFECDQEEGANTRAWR

Sequence of endogenous CD123 on human leukaemia cells (OCI-AML5, TF-1) (human) (P26951 19-378): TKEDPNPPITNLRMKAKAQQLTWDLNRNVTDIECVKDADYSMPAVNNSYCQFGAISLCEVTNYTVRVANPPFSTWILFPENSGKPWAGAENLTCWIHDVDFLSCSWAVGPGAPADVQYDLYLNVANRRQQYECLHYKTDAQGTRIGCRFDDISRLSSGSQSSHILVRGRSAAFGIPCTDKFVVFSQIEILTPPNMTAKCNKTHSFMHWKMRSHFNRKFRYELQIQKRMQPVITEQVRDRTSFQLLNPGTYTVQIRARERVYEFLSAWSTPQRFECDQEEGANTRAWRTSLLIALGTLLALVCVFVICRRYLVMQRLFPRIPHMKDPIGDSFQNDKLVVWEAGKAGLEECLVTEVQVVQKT
Sequence of cyno CD123 ECD displayed on pDisplay-transfected cells (cynomolgus monkey) (chain, as listed by the source): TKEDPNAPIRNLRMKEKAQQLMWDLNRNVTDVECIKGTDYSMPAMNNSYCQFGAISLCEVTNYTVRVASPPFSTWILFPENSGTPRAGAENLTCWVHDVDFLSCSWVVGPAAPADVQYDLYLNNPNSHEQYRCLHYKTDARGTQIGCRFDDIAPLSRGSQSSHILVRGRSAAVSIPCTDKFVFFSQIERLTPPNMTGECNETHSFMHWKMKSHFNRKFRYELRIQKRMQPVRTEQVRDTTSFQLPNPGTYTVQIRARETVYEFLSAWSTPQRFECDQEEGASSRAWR

B1: 7G3 (antibody, from another filing, V domains shown)
VH: EVQLQQSGPELVKPGASVKMSCKASGYTFTDYYMKWVKQSHGKSLEWIGDIIPSNGATFYNQKFKGKATLTVDRSSSTAYMHLNSLTSEDSAVYYCTRSHLLRASWFAYWGQGTLVTVSA
VL: DFVMTQSPSSLTVTAGEKVTMSCKSSQSLLNSGNQKNYLTWYLQKPGQPPKLLIYWASTRESGVPDRFTGSGSGTDFTLTISSVQAEDLAVYYCQNDYSYPYTFGGGTKLEIKR
As for B1, the IC50 (read off the curve): IL-3-induced CD123/CD131 heteromerization (RLU) in assay [1] amounted to 0.05 µg/mL; in assay [4], 0.2 µg/mL. In addition, the EC50 (read off the curve) in assay [2] came to 7 µg/mL. The values for the Kd in assay [3] and in assay [5] were 0.057 nM and 0.154 nM, respectively.
